Laboratory results: paper PMC10520873, “Biochemical investigation of the tryptophan biosynthetic enzyme anthranilate phosphoribosyltransferase in plants” (The Journal of Biological Chemistry, 2023)

Substrate: Nc1c(O)cccc1C(=O)O
Test: purified protein
Type: biochemical, Physcomitrium patens
Conditions: 1 mM PR-PPi, 45 mM imidazole HCl pH 7.4, 30 °C, 3-HAA 0-0.5 mM

B1: PpPAT1 (Physcomitrium patens) (protein)
chain: MAAALASQRTWLPSSSVGPFRGSFATAPASSPRVLGVPRKFAVESGKWEVLVRNVRAQSSTVTVPARTLSIPQVLEQLIQGTNLTQAQTEEVMETLLADANPAIIGAFLALLRAKGETLDEVTGLASAMLSRAIPVRTVPGSLDIVGTGGDGANTVNISTGSCILAAACGAKVAKHGSRSSSSACGSADVLETLGVAIDLGPEGVAKCVEDVGVGFMFAPTYHPAMKVVAPVRRSLKIKTAFNILGPMLNPSRAPHSIVGVYHDNLVEKMAKILQHFGTKRTLVVHCHGLDEMSPLGGGRVLEVTQDKIESFVFDPLNFGIPRCTLEDLKGGNADFNAKSLRNVFAGEPGPIADSLILNAAAGIMACGLVKDLGEGVSLARDVLRSGRANTVLDNWISLSQKLKAEEVSE
notes: codon-optimized gene in pET28a, His-tagged, E. coli BL21 (DE3), Ni-NTA
With B1 the Km was 99.71 ± 11.2 µM, the kcat was 0.0533 ± 0.00167 s⁻¹ and the kcat/Km was 537 M⁻¹ s⁻¹.
